Experimental data reported in the nanobody polyreactivity screen of Harvey et al. (2022).

assay: yeast display, Sf9 membrane polyspecificity reagent, FACS + sequencing; frameworks hold sequencing errors
In short: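 In a synthetic yeast display library (Saccharomyces cerevisiae BJ5465), nanobody expression was induced with galactose for 36–48 hours. FACS gates were set low and high (top ~1%) using anti-HA fluorescence for expression and streptavidin fluorescence for binding of the Sf9 membrane reagent. Each polyreactivity label is drawn from the gate of origin.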

Row | Sequence | polyreactivity (PSR sort gate)
1 | QVQLVDSGGGLVQAGGSLRLSCAASGITFGRYAMGWYRQAPGKERELVATITVNGGRTYYADSVKGRFTISRDNAKNTVYLQMNSLKPEDTAVYYCAAESAVDFDYWGQGTQVTVSS | low polyreactivity
2 | QVQLVDSGGGLVQAGGSLRLSCAASGITFNLNVMGWYRQAPGKERELVAAISRSGGRTYYADSVKGRFTISRDNAKNTVYLQMNSLKPEDTAVYYCDALSDRSSVPGDYWGQGTQVTVSS | high polyreactivity
3 | QVQLVDSGGGLVQAGGSLRLSCAASGRIFELYAMGWNTQATGKDRELVAVITNGGSTYYADSVKGRFTISRDNAKNTVYLQLNSLKPEDTAVYYCNGRRGYNRVGGSYGYWGQGTQVTVSS | low polyreactivity
4 | QVQLVDSGGGLVQAGGSLRLSCAASGRIFGVNAMGWYRQAPGKERELVAAINFSGGGTYYADSVKGRFTISRDNAKNTVYLQMNSLKPEDTAVYYCAADGPDYKWYYELDYWGQGTQVTVSS | low polyreactivity
5 | QVQLVDSGGGLVQAGGSLRLSCAASGRIFSENAMVWYRQSRGKERELVAAITANGGDTYYADSVKGRFTISRDNAKNTVYLQMNSLKPEDTAVYYCAAETGGLGGDYWGQGTQVTVSS | low polyreactivity
6 | QVQLVDSGGGLVQAGGSLRLSCAASGRIFYQYAMGWYRQAPGKERELVAGISKRGGSTYYADSVKGRFTISRDNAKNTVYLQMNSLKPEDTAVYYCARGGYPGSAEYDYWGQATQVTVSS | high polyreactivity
7 | QVQLVDSGGGLVQAGGSLRLSCAASGRILSTYPMGWYRPAPGKERELVAAITRTSGSTYYADSVKGRFTISRDNAKNTVFLQMNSLKPEDTEVYYCAADTWLITWSGQYNSWGQGTQVTVSS | low polyreactivity
8 | QVQLVDSGGGLVQAGGSLRLSCAASGRTFDNYAMGWYRQAPGKERELVAAISSSGGRTYYADSVKGRFTISRDNAKNTVYLQMNSLKPEDTAVYYCAAVWPVYRTHPGMDYWGHGTQVTVSS | high polyreactivity
9 | QVQLVDSGGGLVQAGGSLRLSCAASGRTFDVYTMGWYRQAPGKERELVAAINGGGSTYYADSVKGRFTISRDNAKNTVYLQMNTLKPEDTAVYYCAAKLRAGRSSYYWGQGTQVTVSS | high polyreactivity
10 | QVQLVDSGGGLVQAGGSLRLSCAASGRTFGYNAMGCYRQATGKERELVAAISSSGGSTYYADSVKGRFTISRDYAKNTVYLQMNSLKPEDTAVYYCATQGYSWAHGSDFWGQGTQVTVSS | low polyreactivity
11 | QVQLVDSGGGLVQAGGSLRLSCAASGRTFGYYAMGWYRQAPGKERELVAAISWRGTSTYYADSVKGRFTISRDNAKNTVYLQMNSLKPEDTAVYYCAVGRTVAHRFIAGDYWGQGTQVTVSS | high polyreactivity
12 | QVQLVDSGGGLVQAGGSLRLSCAASGRTFYFNAMGWYRQAPGKERELVAAITSSDSTYYADSVKGRFTISRDNAKNTVYLQMISLKPEDTAVYYCNADYFYWREMDYWGQGTQVTVSS | low polyreactivity
13 | QVQLVDSGGGLVQAGGSLRLSCAASGRTFYRNAMGWYRQAPGKVRELVAGISSGGFTYYADSVKGRFTITRDNAKNTFYLQMNSLKPEDTPVYYCAASAWSGYWFDYWGQGTQVTVSS | high polyreactivity
14 | QVQLVDSGGGLVQAGGSLRLSCAASGRTFYTNAMGWYRQAPRKERQLVAAITRGGSTYYADSVKGRFTISRDNAKNTVYLQMNSLKPEDTAVYYCAADGRFRSHTFYYWGQGTQVTVSS | high polyreactivity
15 | QVQLVDSGGGLVQAGGSLRLSCAASGRTIGGNAMGWSRQAPGKERELVAGINISGGSTNYADSVKGRFTISRDNAKNTVYLQMNSLKPEDTAVYYCNADTAVYAWDDDYWGQGTQVTVSS | low polyreactivity
16 | QVQLVDSGGGLVQAGGSLRLSCAASGRTILINAMGWDRQAPGKERELVAGITRNGGTTYYADSVKGRFTISRDNAKNTVYLQMNSLKPEDTAVYYCAKRYPSWFNYWGQGTQVTVSS | high polyreactivity
17 | QVQLVDSGGGLVQAGGSLRLSCAASGSIFDPNAMGWYRQAPGKERELVADIDSSDGSTYYADSVKGRFTISRDNAKNTVYLQMNSLKPEDTAVYYCNALSALAVEDGYWGQGTQVTVSS | low polyreactivity
18 | QVQLVDSGGGLVQAGGSLRLSCAASGSIFDSYVKGWYRQAPGKERELVAAITYSGGSTYADSVKGRFTISRDNAKNTVYLQMNSLKPEDTAVYYCAAASYFYMFLLEDYWGQGTHVTVSS | low polyreactivity
19 | QVQLVDSGGGLVQAGGSLRLSCAASGSIFEGYVMGWYRQAPGKERELVAAITTGGGSTYYADSVKGRFTISRDNAKNTVDLPMNSLKPEDTAVYYCAKDYWFGYEYWGQGTQVTVSS | low polyreactivity
20 | QVQLVDSGGGLVQAGGSLRLSCAASGSIFGYYTMGWYRQAPGKERELVAAITSGGSTKYADSVKGRITISRDNAKNTVYLQMNCLKPEDTAVYYCAKVSYYPWRYDYWGPGTQVTVSS | low polyreactivity
21 | QVQLVDSGGGLVQAGGSLRLSCAASGSIFKFYTMGWYRQAPGKERQLVAAISSSDGSTHYADSVKGRFTISRDNAKNTVYLQMNSLKPEDTAVYYCARRRYSRYSVTRGNYWGQGTQVTVSS | high polyreactivity

Row | Sequence | polyreactivity (PSR sort gate)
22 | QVQLVDSGGGLVQAGGSLRLSCAASGSIFLAYAMGWYRQAPGKEREFVAAISFSDGSTYYADSVKGRFTISRDNAKNTVYLQMNSLKPEDTAVYYCNKGASPDDYDFWGQGTQVTVSS | low polyreactivity
23 | QVQLVDSGGGLVQAGGSLRLSCAASGSIFRGYAMGWYRQAPGKERELVAAIRRRAGTTYYADSVKARFTISRDNAKNTVYLQMNSLKPEDTAVYYCAVERYHSGDDYLGQGTQVTVSS | high polyreactivity
24 | QVQLVDSGGGLVQAGGSLRLSCAASGSIFYVYAMGWYRQAPGKERELVAAISWTGGSTDYADSVKGRFTISRDNAKNTVYLHMNSLKPEDTAVYYCATELGYGDWYNYWGQGTQVTVSS | low polyreactivity
25 | QVQLVDSGGGLVQAGGSLRLSCAASGSIIFYNAMGWYRQAPGKERELVAAISRGGNTNYADSVKGRFTISRDNAKNNFYLQMNSLKSEDTAVYYCNADLVQYWGRRRWYDYWGQGTQVTVSS | low polyreactivity
26 | QVQLVDSGGGLVQAGGSLRLSCAASGSIIGVNAMGWYRQAPGKERELVAAISWSGSSTRYADSVKGRFTISRDNAKNTVYLQMNSLKPEDTAVYYCAAEAQTKWWDYYYWGQGTQVTVSS | high polyreactivity
27 | QVQLVDSGGGLVQAGGSLRLSCAASGSIVVLYAMGWYRQAPGKERELVAAITSGASTNYADSVKGRFTISRDNAKNTVYLQMNSLKPEDTAVYYCHTGSRLDRVDSWGQGTQVTVSS | low polyreactivity
28 | QVQLVDSGGGLVQAGGSLRLSCAASGSNFTKYAMGWYRQAPGKERELVAAILRSGDRTYYADSVKGRFTISRDNAKNTVYLQMTSMIPEDTAVYYCAAGYSQYWTDPQGFAYDYWGQGTQVTVSS | low polyreactivity
29 | QVQLVDSGGGLVQAGGSLRLSCAASGSNYVDYDMGWYRQAPGKERDLVAALTYSGARTYYADSVKGRFTISRDNAENTVYLQMNSLKPEDTAVYYCNAAGYPYPYRGDYDYWGQGTQVTVSS | low polyreactivity
30 | QVQLVDSGGGLVQAGGSLRLSCAASGSTFKYYGMGWYRQAPGKERELVASISSSGTRTYYADSVKGRFTISRDNAKNTVYLQMNSLKAEDTAVYYCAADSYATYFLYDSWGQGTQVTVSS | low polyreactivity
31 | QVQLVDSGGGLVQAGGSLRLSCAASGSTFRRNAMGWYRHAPGKERELVAAINRRGGDTYYADSVKGRFTISCDNAKNTVYLQMNSLKPEDTAVYYCAAEWQSVAFDWGGYGDDYWGQGTQVTVSS | low polyreactivity
32 | QVQLVDSGGGLVQAGGSLRLSCAASGSTFVYYAMGWYRQAPGKERELVAAITWNGGSTYYADSVKGRFTISRDNAKNTVYLQMNSLKPEDTAVYYCNAEYPVYFEGYPYYWDYWGDSWGQGTQVTVSS | high polyreactivity
33 | QVQLVDSGGGLVQAGGSLRLSCAASGSTIKYYAMGWYRQEPGKERELVAAINWSGDSTYYADSVKGRFTISRDYAKITVYLQKISLKPEDTAVYYCAVRYQKRAYYGSNYWGQGTQVTVSS | high polyreactivity
34 | QVQLVDSGGGLVQAGGSLRLSCAASGSTYGLYAMGWYRQATGKERELVAAITWRASSTYYADSVKGRFTISRDNAKNTVFLQMNSLKPEDTAVYYCAATWYSRFSRGDYDYWGQGTQVTVSS | high polyreactivity
35 | QVQLVDSGGGLVQAGGSLRLSCAASGYTFGNNARAWYRQAPGKERELVARIRTNGGTTYYADSVKGRFTISRDNAKYTVYLQMNSLKPEDTAVYYCNAYRGYEYDYWGQGTQVTVSS | low polyreactivity
36 | QVQLVDSGGGLVQAGGSLRLSCADSGRTFWGYGKGWYRQATGKERELVATISSGGSTYYADSVKGRFTISRDNAKNTVYLQMNSLKPEDTAVYYCAARPPPTYWRYQSDYWGQGTQVTVSS | high polyreactivity
37 | QVQLVDSGGGLVQAGGSLRLSCADSGSIFGVYAMGWYRQATGKESELVAAISISDGITYYADSVKGRFTISRDNAKNNVYLQMNSLKPEDTAVYYCAAELSPYYYGESYDYWGQGTQVTVSS | high polyreactivity
38 | QVQLVDSGGGLVQAGGSLRLSCAPSGFTIYKYVMGWDRQAPGKDREVVAAITTCGGSTYYADSVKGRFTISRDYAKNTVYLQMNSLKPEHTAVDYCNARSLHTSEGDYWGQGTQVTVSS | low polyreactivity
39 | QVQLVDSGGGLVQAGGSLRLSCGASGFIIARNAMGGYRHPPGKERELVAAISRNGGRTSYADSVKGRFTISRDTAKNTVYLQMNSLNPEDTAVYYCAKAQGYVTWTGAYAYDYWGQGTQVTVSS | high polyreactivity
40 | QVQLVDSGGGLVQAGGSLRLSCSASGITNGRNTMGLYRQAPGKERELVAAIDSGGNTYADSVKGRFTISRDNAKNTVYLQMNSLKPEDTAVYYCAVDGGEFSSYGYWGQGTQVTVSS | low polyreactivity
41 | QVQLVDSGGGLVQAGGSLRLSFAASGSTFHTYAMGWYRQAPGTERELVATNTWDGGRTYYADSVKGRFTISRDIAKYTVYLQMNSLKPEDTAVYYCASVYWSIEMDYWGQGSQVTVSS | low polyreactivity
